Test in all cases: cell-based or functional assay
Experiment [1] addresses HIV-1 Env of pseudovirus T278-50 (HIV-1).
In experiment [2] the target is HIV-1 Env of pseudovirus 9004SS_A3_4 (HIV-1).
For experiment [3], the target named is HIV-1 Env of pseudovirus 3016.v5.c45 (HIV-1).
Experiment [4] concerns the target HIV-1 Env of pseudovirus 231965.c01 (HIV-1).
In experiment [5] the target is HIV-1 Env of pseudovirus 620345.c01 (HIV-1).
Experiment [6] concerns the target HIV-1 Env of pseudovirus A07412M1.vrc12 (HIV-1).
The target in experiment [7] is HIV-1 Env of pseudovirus X1254_c3 (HIV-1).
Experiment [8] has as its target HIV-1 Env of pseudovirus 6952.v1.c20 (HIV-1).
Experiment [9] addresses HIV-1 Env of pseudovirus 6545.v4.c1 (HIV-1).
Experiment [10] concerns the target HIV-1 Env of pseudovirus CNE5 (HIV-1).

This is an account of results in patent US20240117018A1.

Regarding N49P9 (antibody), the neutralization IC50 was > 50 µg/mL in experiment [1]; 0.175 µg/mL in [2]; 0.06 µg/mL in [3]; 0.253 µg/mL in experiment [4]; > 50 µg/mL in experiment [5]; 0.142 µg/mL in experiment [6]. Also, the neutralization IC50 in [7] was 0.04 µg/mL; in experiment [8], 0.095 µg/mL; in experiment [9], > 50 µg/mL. Moreover, the neutralization IC80 in [1] was > 50 µg/mL; in experiment [2], 0.751 µg/mL; in [3], 0.209 µg/mL; in experiment [4], 1.16 µg/mL; in [5] it was > 50 µg/mL; in [6] it was 0.636 µg/mL. Besides, the neutralization IC80 was 0.104 µg/mL in experiment [7], 0.258 µg/mL in [8] and > 50 µg/mL in experiment [9]. Further, the neutralization MPI in [1] came out at 25; in experiment [2] it was 100; in experiment [3], 100; in experiment [4], 100; in experiment [5], 9; in experiment [6] it was 100. The values for the neutralization MPI in experiment [7], in experiment [8] and in [9] were 100, 100 and 20, respectively.
For 10-1074 (antibody), the IC50 neutralization (TZM.bl) in experiment [1] is 2.15 µg/mL; in experiment [3], > 50 µg/mL; in experiment [4], > 50 µg/mL; in experiment [10] it was > 50 µg/mL; in experiment [5], > 50 µg/mL; in experiment [6] it was < 0.001 µg/mL. The IC50 neutralization (TZM.bl) was 0.089 µg/mL in [7], 0.037 µg/mL in experiment [8] and > 50 µg/mL in [9]. Further, the IC80 neutralization (TZM.bl) in [1] was 18.3 µg/mL; in [3], > 50 µg/mL; in [4] it was > 50 µg/mL; in experiment [10] it was > 50 µg/mL; in [5], > 50 µg/mL; in experiment [6] it was 0.048 µg/mL. The IC80 neutralization (TZM.bl) is 0.297 µg/mL in [7], 0.138 µg/mL in [8] and > 50 µg/mL in experiment [9].
Take PG9 (antibody): the IC50 neutralization (TZM.bl) stood at 0.393 µg/mL in experiment [1]; 2.46 µg/mL in experiment [3]; 1.28 µg/mL in experiment [4]; 0.018 µg/mL in [10]; 1.33 µg/mL in [5]; 0.697 µg/mL in [6]. Besides, the IC50 neutralization (TZM.bl) in experiment [7] is 0.065 µg/mL; in experiment [8], > 50 µg/mL; in experiment [9], 0.099 µg/mL. Besides, the IC80 neutralization (TZM.bl) was 3.19 µg/mL in [1]; > 50 µg/mL in experiment [3]; 48 µg/mL in experiment [4]; 0.051 µg/mL in experiment [10]; > 50 µg/mL in [5]; 7.96 µg/mL in experiment [6]. Also, the figures for the IC80 neutralization (TZM.bl) in experiment [7], in experiment [8] and in experiment [9] were 0.304 µg/mL, > 50 µg/mL and 0.351 µg/mL, respectively.
N49P9.1 (antibody): the neutralization IC50 in [1] was > 50 µg/mL; in [2] it was 0.323 µg/mL; in experiment [3] it was 0.076 µg/mL; in experiment [4], 0.474 µg/mL; in experiment [10], 0.183 µg/mL; in [5] it was > 50 µg/mL. Moreover, the neutralization IC50 in experiment [6] is 0.189 µg/mL; in [7], 0.101 µg/mL; in experiment [8], 0.119 µg/mL; in experiment [9], > 50 µg/mL. In addition, the neutralization IC80 in [1] is > 50 µg/mL; in experiment [2], 1.13 µg/mL; in [3], 0.223 µg/mL; in [4], 2.24 µg/mL; in [10], 0.641 µg/mL; in experiment [5], > 50 µg/mL. For the same substance, the neutralization IC80 is 0.947 µg/mL in [6], 0.278 µg/mL in experiment [7], 0.389 µg/mL in [8] and > 50 µg/mL in experiment [9]. Besides, the neutralization MPI in experiment [1] is 5; in experiment [2] it was 100; in experiment [3], 100; in experiment [4] it was 100; in experiment [10], 100; in [5], 7. Also, the neutralization MPI in experiment [6] was determined as 100; in experiment [7], 100; in [8], 100; in experiment [9], 6.
PG16 (antibody): the IC50 neutralization (TZM.bl) in experiment [1] was 0.227 µg/mL; in [3], > 50 µg/mL; in [4], 1.44 µg/mL; in [10] it was 0.008 µg/mL; in experiment [5], > 50 µg/mL; in [6], 0.343 µg/mL. For the same substance, the results for the IC50 neutralization (TZM.bl) in experiment [7], in experiment [8] and in experiment [9] were 0.023 µg/mL, 21.9 µg/mL and 0.044 µg/mL, respectively. Also, the IC80 neutralization (TZM.bl) is 18.6 µg/mL in [1]; > 50 µg/mL in experiment [3]; > 50 µg/mL in experiment [4]; 0.033 µg/mL in [10]; > 50 µg/mL in experiment [5]; > 50 µg/mL in [6]. The IC80 neutralization (TZM.bl) in [7] is 0.218 µg/mL; in experiment [8], > 50 µg/mL; in experiment [9], 1.56 µg/mL.
In the case of 10E8 (antibody), the IC50 neutralization (TZM.bl) is 0.949 µg/mL in [1]; 0.476 µg/mL in experiment [3]; > 10 µg/mL in experiment [4]; 1.41 µg/mL in experiment [10]; 0.455 µg/mL in [5]; 0.576 µg/mL in [6]. In addition, the IC50 neutralization (TZM.bl) in [7] worked out at 4.75 µg/mL; in [8] it was 0.343 µg/mL; in [9], 1.78 µg/mL. In addition, the IC80 neutralization (TZM.bl) in experiment [1] was 7.46 µg/mL; in experiment [3], 4.39 µg/mL; in experiment [4], > 10 µg/mL; in experiment [10] it was 9.64 µg/mL; in experiment [5], 6 µg/mL; in [6], 6.05 µg/mL. For the same substance, the IC80 neutralization (TZM.bl) was > 10 µg/mL in experiment [7], 1.91 µg/mL in experiment [8] and 8.23 µg/mL in experiment [9].
